This test deals with IL-17A (24-155) protein (human, UniProt Q16552 24-155). Description: indirect ELISA screening of hybridomas.

We go through two molecules from US20210122815A1 (AKESO BIOPHARMA, published 2021).

Sequence of IL-17A (24-155) protein (Q16552 24-155): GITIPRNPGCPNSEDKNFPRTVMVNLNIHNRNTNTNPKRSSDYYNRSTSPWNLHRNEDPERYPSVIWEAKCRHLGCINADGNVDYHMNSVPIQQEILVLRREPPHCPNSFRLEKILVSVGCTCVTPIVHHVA

B1: monoclonal murine antibody 13E9 (antibody, V domains shown)
VH: EVKLQESGPGLVKPSQSLSLTCTVTSYSFTSDYAWSWIRQFPGIKLEWMGYITYSGVTSYNPSLKSRISITRDTSKNQFFLQLNSVTTEDTATYYCARADYDSYYTMDYWGQGTSVTVSS
VL: DIQLTQSPLSLPVSLGDQASISCRSSQSLVHSNGNTYLHWYLQKPGQSPRLLIYKVSNRFSGVPDRFSGSGSGTDFTLKISRVEAEDLGVYFCSQSTHFWTFGGGTKLEIK
notes: Mouse hybridoma antibody purified on protein A; also called antibody secreted by hybridoma cell line LT006 (IL-17A-13E9)
Turning to B1, the binding result is given as “binds”.

B2: monoclonal murine antibody 2G2 (antibody, V domains shown)
VH: EVQLEQSGSELRSPGSSVKLSCKDFDSEVFPIADMSWVRQKPGHGFEWIGDILPSFGRTIYGEKFEDKAKVDADTVSNTAYLELNSLTSEDSAIYYCARGNYGFAYWGQGTLVTVSA
VL: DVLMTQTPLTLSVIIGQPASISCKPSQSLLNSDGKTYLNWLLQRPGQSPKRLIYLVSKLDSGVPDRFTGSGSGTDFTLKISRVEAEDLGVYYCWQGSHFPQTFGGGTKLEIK
notes: Mouse hybridoma antibody purified on protein A; also called antibody secreted by hybridoma cell line LT007 (IL-17A-2G2)
As to B2, the binding result is recorded as “binds”.
